Data on one molecule can be found in paper doi:10.1101/398008.

The series deals with IMP3 KH1-2 WT (human, UniProt O00425 192-355). Put plainly: ITC. For orientation: In ITC the heat of successive injections is recorded.
IMP3 KH1-2 WT, sequence (O00425 192-355): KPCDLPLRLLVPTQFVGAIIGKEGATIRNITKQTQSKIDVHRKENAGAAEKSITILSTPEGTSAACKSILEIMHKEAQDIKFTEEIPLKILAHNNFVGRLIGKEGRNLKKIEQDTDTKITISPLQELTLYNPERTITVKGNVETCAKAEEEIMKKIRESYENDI

On to AACACAAUUUUGGAGGAACUACAGAAUGCGGCUA (ssRNA) [34-mer], for which the binding signal is ~10 fold higher affinity than 7-mer RNAs.
